B1: FGF21 truncation mutant 9-181 (ligand)
chain: LLQFGGQVRQRYLYTDDAQQTEAHLEIREDGTVGGAADQSPESLLQLKALKPGVIQILGVKTSRFLCQRPDGALYGSLHFDPEACSFRELLLEDGYNVYQSEAHGLPLHLPGNKSPHRDPAPRGPARFLPLPGLPPAPPEPPGILAPQPPDVGSSDPLSMVGPSQGRSPSYAS
B2: FGF21 truncation mutant 1-169 (ligand)
chain: HPIPDSSPLLQFGGQVRQRYLYTDDAQQTEAHLEIREDGTVGGAADQSPESLLQLKALKPGVIQILGVKTSRFLCQRPDGALYGSLHFDPEACSFRELLLEDGYNVYQSEAHGLPLHLPGNKSPHRDPAPRGPARFLPLPGLPPAPPEPPGILAPQPPDVGSSDPLSMV
B3: FGF21 truncation mutant 1-173 (ligand)
chain: HPIPDSSPLLQFGGQVRQRYLYTDDAQQTEAHLEIREDGTVGGAADQSPESLLQLKALKPGVIQILGVKTSRFLCQRPDGALYGSLHFDPEACSFRELLLEDGYNVYQSEAHGLPLHLPGNKSPHRDPAPRGPARFLPLPGLPPAPPEPPGILAPQPPDVGSSDPLSMVGPSQ
B4: FGF21 truncation mutant 1-176 (ligand)
chain: HPIPDSSPLLQFGGQVRQRYLYTDDAQQTEAHLEIREDGTVGGAADQSPESLLQLKALKPGVIQILGVKTSRFLCQRPDGALYGSLHFDPEACSFRELLLEDGYNVYQSEAHGLPLHLPGNKSPHRDPAPRGPARFLPLPGLPPAPPEPPGILAPQPPDVGSSDPLSMVGPSQGRS
B5: FGF21 truncation mutant 1-165 (ligand)
chain: HPIPDSSPLLQFGGQVRQRYLYTDDAQQTEAHLEIREDGTVGGAADQSPESLLQLKALKPGVIQILGVKTSRFLCQRPDGALYGSLHFDPEACSFRELLLEDGYNVYQSEAHGLPLHLPGNKSPHRDPAPRGPARFLPLPGLPPAPPEPPGILAPQPPDVGSSDP
B6: FGF21 truncation mutant 1-177 (ligand)
chain: HPIPDSSPLLQFGGQVRQRYLYTDDAQQTEAHLEIREDGTVGGAADQSPESLLQLKALKPGVIQILGVKTSRFLCQRPDGALYGSLHFDPEACSFRELLLEDGYNVYQSEAHGLPLHLPGNKSPHRDPAPRGPARFLPLPGLPPAPPEPPGILAPQPPDVGSSDPLSMVGPSQGRSP
B7: human FGF21 (wild-type mature FGF21 polypeptide) (ligand)
chain: HPIPDSSPLLQFGGQVRQRYLYTDDAQQTEAHLEIREDGTVGGAADQSPESLLQLKALKPGVIQILGVKTSRFLCQRPDGALYGSLHFDPEACSFRELLLEDGYNVYQSEAHGLPLHLPGNKSPHRDPAPRGPARFLPLPGLPPAPPEPPGILAPQPPDVGSSDPLSMVGPSQGRSPSYAS
B8: FGF21 truncation mutant 1-171 (ligand)
chain: HPIPDSSPLLQFGGQVRQRYLYTDDAQQTEAHLEIREDGTVGGAADQSPESLLQLKALKPGVIQILGVKTSRFLCQRPDGALYGSLHFDPEACSFRELLLEDGYNVYQSEAHGLPLHLPGNKSPHRDPAPRGPARFLPLPGLPPAPPEPPGILAPQPPDVGSSDPLSMVGP
B9: FGF21 truncation mutant 1-178 (ligand)
chain: HPIPDSSPLLQFGGQVRQRYLYTDDAQQTEAHLEIREDGTVGGAADQSPESLLQLKALKPGVIQILGVKTSRFLCQRPDGALYGSLHFDPEACSFRELLLEDGYNVYQSEAHGLPLHLPGNKSPHRDPAPRGPARFLPLPGLPPAPPEPPGILAPQPPDVGSSDPLSMVGPSQGRSPS
B10: FGF21 truncation mutant 3-181 (ligand)
chain: IPDSSPLLQFGGQVRQRYLYTDDAQQTEAHLEIREDGTVGGAADQSPESLLQLKALKPGVIQILGVKTSRFLCQRPDGALYGSLHFDPEACSFRELLLEDGYNVYQSEAHGLPLHLPGNKSPHRDPAPRGPARFLPLPGLPPAPPEPPGILAPQPPDVGSSDPLSMVGPSQGRSPSYAS
B11: FGF21 truncation mutant 4-181 (ligand)
chain: PDSSPLLQFGGQVRQRYLYTDDAQQTEAHLEIREDGTVGGAADQSPESLLQLKALKPGVIQILGVKTSRFLCQRPDGALYGSLHFDPEACSFRELLLEDGYNVYQSEAHGLPLHLPGNKSPHRDPAPRGPARFLPLPGLPPAPPEPPGILAPQPPDVGSSDPLSMVGPSQGRSPSYAS
B12: FGF21 truncation mutant 1-174 (ligand)
chain: HPIPDSSPLLQFGGQVRQRYLYTDDAQQTEAHLEIREDGTVGGAADQSPESLLQLKALKPGVIQILGVKTSRFLCQRPDGALYGSLHFDPEACSFRELLLEDGYNVYQSEAHGLPLHLPGNKSPHRDPAPRGPARFLPLPGLPPAPPEPPGILAPQPPDVGSSDPLSMVGPSQG
B13: FGF21 truncation mutant 1-166 (ligand)
chain: HPIPDSSPLLQFGGQVRQRYLYTDDAQQTEAHLEIREDGTVGGAADQSPESLLQLKALKPGVIQILGVKTSRFLCQRPDGALYGSLHFDPEACSFRELLLEDGYNVYQSEAHGLPLHLPGNKSPHRDPAPRGPARFLPLPGLPPAPPEPPGILAPQPPDVGSSDPL
B14: FGF21 truncation mutant 2-181 (ligand)
chain: PIPDSSPLLQFGGQVRQRYLYTDDAQQTEAHLEIREDGTVGGAADQSPESLLQLKALKPGVIQILGVKTSRFLCQRPDGALYGSLHFDPEACSFRELLLEDGYNVYQSEAHGLPLHLPGNKSPHRDPAPRGPARFLPLPGLPPAPPEPPGILAPQPPDVGSSDPLSMVGPSQGRSPSYAS
B15: FGF21 truncation mutant 7-181 (ligand)
chain: SPLLQFGGQVRQRYLYTDDAQQTEAHLEIREDGTVGGAADQSPESLLQLKALKPGVIQILGVKTSRFLCQRPDGALYGSLHFDPEACSFRELLLEDGYNVYQSEAHGLPLHLPGNKSPHRDPAPRGPARFLPLPGLPPAPPEPPGILAPQPPDVGSSDPLSMVGPSQGRSPSYAS
B16: FGF21 truncation mutant 8-181 (ligand)
chain: PLLQFGGQVRQRYLYTDDAQQTEAHLEIREDGTVGGAADQSPESLLQLKALKPGVIQILGVKTSRFLCQRPDGALYGSLHFDPEACSFRELLLEDGYNVYQSEAHGLPLHLPGNKSPHRDPAPRGPARFLPLPGLPPAPPEPPGILAPQPPDVGSSDPLSMVGPSQGRSPSYAS
B17: FGF21 truncation mutant 5-181 (ligand)
chain: DSSPLLQFGGQVRQRYLYTDDAQQTEAHLEIREDGTVGGAADQSPESLLQLKALKPGVIQILGVKTSRFLCQRPDGALYGSLHFDPEACSFRELLLEDGYNVYQSEAHGLPLHLPGNKSPHRDPAPRGPARFLPLPGLPPAPPEPPGILAPQPPDVGSSDPLSMVGPSQGRSPSYAS
B18: FGF21 truncation mutant 1-180 (ligand)
chain: HPIPDSSPLLQFGGQVRQRYLYTDDAQQTEAHLEIREDGTVGGAADQSPESLLQLKALKPGVIQILGVKTSRFLCQRPDGALYGSLHFDPEACSFRELLLEDGYNVYQSEAHGLPLHLPGNKSPHRDPAPRGPARFLPLPGLPPAPPEPPGILAPQPPDVGSSDPLSMVGPSQGRSPSYA
B19: FGF21 truncation mutant 1-167 (ligand)
chain: HPIPDSSPLLQFGGQVRQRYLYTDDAQQTEAHLEIREDGTVGGAADQSPESLLQLKALKPGVIQILGVKTSRFLCQRPDGALYGSLHFDPEACSFRELLLEDGYNVYQSEAHGLPLHLPGNKSPHRDPAPRGPARFLPLPGLPPAPPEPPGILAPQPPDVGSSDPLS
B20: FGF21 truncation mutant 1-172 (ligand)
chain: HPIPDSSPLLQFGGQVRQRYLYTDDAQQTEAHLEIREDGTVGGAADQSPESLLQLKALKPGVIQILGVKTSRFLCQRPDGALYGSLHFDPEACSFRELLLEDGYNVYQSEAHGLPLHLPGNKSPHRDPAPRGPARFLPLPGLPPAPPEPPGILAPQPPDVGSSDPLSMVGPS

Columns and labels:
beta-klotho [1] = experiment: cell-based or functional assay
beta-klotho [2] = experiment: cell-based or functional assay; remark: listed apart in the source

| Efficacy (ELK-luciferase assay, relative to wild-type FGF21) (beta-klotho [1]) | EC50 (ELK-luciferase assay) (beta-klotho [2]) | Binder |
| --- | --- | --- |
| 12.5% | – | B1 |
| 84.9% | – | B2 |
| 96.1% | – | B3 |
| 105% | – | B4 |
| ~10% | – | B5 |
| 112% | – | B6 |
| – | 0.4 nM | B7 |
| 113% | – | B8 |
| 95% | – | B9 |
| 130% | – | B10 |
| 117% | – | B11 |
| 105% | – | B12 |
| ~20% | – | B13 |
| 112% | – | B14 |
| 74.2% | – | B15 |
| 24.9% | – | B16 |
| 120% | – | B17 |
| 93.2% | – | B18 |
| ~20% | – | B19 |
| 97.5% | – | B20 |

Source: patent US20210317176A1 (Amgen, published 2021)
